Results published in article PMC9271825.

B1: Human Claudin-7 (Cldn7), wild type, His-tagged [human] / itself (parent)
chain: MANSGLQLLGFSMALLGWVGLVACTAIPQWQMSSYAGDNIITAQAMYKGLWMDCVTQSTGMMSCKMYDSVLALSAALQATRALMVVSLVLGFLAMFVATMGMKCTRCGGDDKVKKARIAMGGGIIFIVAGLAALVACSWYGHQIVTDFYNPLIPTNIKYEFGPAIFIGWAGSALVILGGALLSCSCPGNESKAGYRVPRSYPKSNSSKEYV

Variants of: B1
Assay: solubilization/centrifugation assay with SDS-PAGE densitometry
Details: p-buffer, n = 9, read off a plot

screen value (0 mM NaCl) [a.u.] | screen value (300 mM NaCl) [a.u.] | Variant
0.38 | 0.87 | chain 1 E160A
0.7 | 0.91 | chain 1 R81A
0.7 | 0.82 | chain 1 R81A Y149A

Continued, variant first:

Variant | screen value (0 mM NaCl) [a.u.] | screen value (300 mM NaCl) [a.u.]
chain 1 F148A | 0.38 | 0.87
chain 1 F161A | 0.39 | 0.85
chain 1 V70A | 0.39 | 0.8
chain 1 V70A R81A F148A Y149A E160A F161A | 0.87 | 0.86
chain 1 Y149A | 0.67 | 0.96
